Source: patent publication US20230303698A1 (HARBOUR BIOMED SHANGHAI, published 2023)

B1: PR003789 (bispecific antibody, human IgG1, kappa, L234A L235A)
light: DIQMTQSPSTLSASVGDRVTVTCRASQSIYIWLAWYQQKPGKAPNLLIYKASSLETGVPSRFSGSGSGTEFTLTISSLQPDDFATYYCQQYYGSSRTFGQGTKVEIKRTVAAPSVFIFPPSDEQLKSGTASVVCLLNNFYPREAKVQWKVDNALQSGNSQESVTEQDSKDSTYSLSSTLTLSKADYEKHKVYACEVTHQGLSSPVTKSFNRGEC
heavy: EVQLVESGGGLVQPGGSLRLSCAASGFTFSSYWMSWVRQAPGKGLEWVANIKQEGSEKYYVDSVKGRFTISRDNAKNSLYLQMNSLRAEDTAVYYCARDRAVAGAFDIWGQGTMVTVSSASTKGPSVFPLAPSSKSTSGGTAALGCLVKDYFPEPVTVSWNSGALTSGVHTFPAVLQSSGLYSLSSVVTVPSSSLGTQTYICNVNHKPSNTKVDKKVEPKSCDKTHTCPPCPAPEAAGGPSVFLFPPKPKDTLMISRTPEVTCVVVDVSHEDPEVKFNWYVDGVEVHNAKTKPREEQYNSTYRVVSVLTVLHQDWLNGKEYKCKVSNKALGAPIEKTISKAKGQPREPQVYTLPPSREEMTKNQVSLTCLVKGFYPSDIAVEWESNGQPENNYKTTPPVLDSDGSFFLYSKLTVDKSRWQQGNVFSCSVMHEALHNHYTQKSLSLSPGAEPKSSDKTHTPPPPPEVQLLESGGGLVQPGGSLRLSCAASGFTFSSYAMSWVRQAPGKGLEWVSAISGRGGSTFYADSVRGRFTISRDNSKNTLYLQMNSLRAEDTAMYYCVDGTTGTTDVDYWGQGTLVTVSS
notes: Structure 1, IgG-VH; PD-L1 Fab from PR000265, OX40 VH from PR002067; linker H1_15; human IgG1 (AAG); also called PD-L1×OX40 bispecific antibody molecule
B2: PR003557 (bispecific antibody, human IgG1, kappa, L234A L235A)
light: DIQMTQSPSSLSASIGDRVTITCRASQSINSYLNWYQQKPGKAPKLLIYTASSLLSGVPSRFSASGSWTDFSLTISSLQPEDFATYYCQQSFSTPYTFGQGTNLEIKRTVAAPSVFIFPPSDEQLKSGTASVVCLLNNFYPREAKVQWKVDNALQSGNSQESVTEQDSKDSTYSLSSTLTLSKADYEKHKVYACEVTHQGLSSPVTKSFNRGEC
heavy: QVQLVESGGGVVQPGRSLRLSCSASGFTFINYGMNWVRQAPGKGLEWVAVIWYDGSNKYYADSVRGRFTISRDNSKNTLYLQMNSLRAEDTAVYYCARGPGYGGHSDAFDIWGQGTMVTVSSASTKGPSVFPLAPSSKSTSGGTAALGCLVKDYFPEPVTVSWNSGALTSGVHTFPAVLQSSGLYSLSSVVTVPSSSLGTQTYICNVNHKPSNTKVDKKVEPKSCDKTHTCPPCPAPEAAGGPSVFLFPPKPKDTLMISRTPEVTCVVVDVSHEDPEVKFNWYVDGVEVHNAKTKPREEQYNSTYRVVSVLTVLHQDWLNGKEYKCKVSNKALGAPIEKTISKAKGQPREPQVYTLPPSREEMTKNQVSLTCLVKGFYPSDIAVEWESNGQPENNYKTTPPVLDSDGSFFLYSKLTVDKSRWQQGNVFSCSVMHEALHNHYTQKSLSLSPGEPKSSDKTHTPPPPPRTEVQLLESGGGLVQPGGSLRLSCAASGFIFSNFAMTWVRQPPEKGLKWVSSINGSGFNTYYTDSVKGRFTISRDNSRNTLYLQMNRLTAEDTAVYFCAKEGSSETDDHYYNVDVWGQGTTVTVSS
notes: Structure 1, IgG-VH; PSMA Fab from PR001331, 4-1BB VH from PR001836; linker H1_15-RT; human IgG (AAG) as printed; also called PSMA×4-1BB bispecific antibody molecule
B3: PR004284 (bispecific antibody, human IgG1, kappa, L234A L235A)
light: B2 light
heavy: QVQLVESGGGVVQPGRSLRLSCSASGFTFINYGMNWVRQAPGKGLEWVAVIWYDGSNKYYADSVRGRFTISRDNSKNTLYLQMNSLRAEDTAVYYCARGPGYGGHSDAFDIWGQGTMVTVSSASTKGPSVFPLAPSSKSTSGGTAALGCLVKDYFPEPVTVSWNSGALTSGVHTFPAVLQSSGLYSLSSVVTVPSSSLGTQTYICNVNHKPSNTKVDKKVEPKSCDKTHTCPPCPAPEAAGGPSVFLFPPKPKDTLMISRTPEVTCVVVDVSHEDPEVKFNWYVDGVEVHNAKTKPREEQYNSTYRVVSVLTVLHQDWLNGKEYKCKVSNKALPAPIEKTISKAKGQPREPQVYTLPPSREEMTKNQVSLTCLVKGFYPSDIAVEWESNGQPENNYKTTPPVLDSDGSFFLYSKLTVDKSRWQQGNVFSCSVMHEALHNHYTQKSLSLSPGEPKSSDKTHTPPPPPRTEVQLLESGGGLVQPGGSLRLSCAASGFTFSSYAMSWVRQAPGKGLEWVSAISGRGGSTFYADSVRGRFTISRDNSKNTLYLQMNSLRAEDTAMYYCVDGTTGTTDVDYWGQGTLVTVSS
notes: Structure 1, IgG-VH; PSMA Fab from PR001331, OX40 VH from PR002067; linker H1_15-RT; human IgG1 (LALA); also called PSMA×OX40 bispecific antibody molecule
B4: PR002067, anti-OX40 heavy-chain antibody R1026P079E12 (antibody, human IgG1, V domains shown)
VH: EVQLLESGGGLVQPGGSLRLSCAASGFTFSSYAMSWVRQAPGKGLEWVSAISGRGGSTFYADSVRGRFTISRDNSKNTLYLQMNSLRAEDTAMYYCVDGTTGTTDVDYWGQGTLVTVSS
notes: Fully human heavy-chain antibody (HCAb), heavy chain dimer without light chains; also called anti-OX40 HCAb antibody
B5: PR002726, anti-CLDN18.2 monoclonal antibody 13E6F4 hIgG1 (antibody, V domains shown)
VH: EVQLLESGGGLVQPGGSLRLSCAASGFTFSSFVMSWVRQAPGKGLEWVSTISGSGRSTYYADSVKGRFTISRDNSKNTLHLQMNSLRAEDTAVYYCAKDAAAAGTKFDYWGQGTLVTVSS
VL: EIVLTQSPATLSLSPGERATLSCRASQSVSSYLAWYQQKPGQAPRLLIYDASNRATGIPARFSGSGSGTDFTLTISSLEPEDFAVYYCQQRSNWPLTFGGGTKVEIKR
notes: Parent monoclonal antibody of the CLDN18.2 end; hIgG1

How the values were obtained:
[1] = molecular target: T1, human PD-L1 (human, UniProt Q9NZQ7 19-290); experiment: flow cytometry, CHO-K1/hPD-L1 cells
T1 construct: whole, on cells; Expressed on CHO-K1/hPD-L1 cells (GenScript, M00543); also called CD274; B7-H1

[2] = molecular target: T2, human OX40 (human, UniProt P43489 29-277); experiment: flow cytometry, CHO-K1/hu OX40 cells
T2 construct: whole, on cells; Expressed on CHO-K1/hu OX40 cells (GenScript, #M00561); also called CD134; TNFRSF4
T2 sequence (looked up): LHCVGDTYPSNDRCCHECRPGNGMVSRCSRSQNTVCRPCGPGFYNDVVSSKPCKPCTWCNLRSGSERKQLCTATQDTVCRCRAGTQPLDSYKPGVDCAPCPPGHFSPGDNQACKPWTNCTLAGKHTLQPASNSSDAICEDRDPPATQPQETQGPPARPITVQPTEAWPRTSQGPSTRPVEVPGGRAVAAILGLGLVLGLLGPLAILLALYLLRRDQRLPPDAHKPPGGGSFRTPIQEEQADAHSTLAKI
Experimental: The antibody binding assay at the cellular level was performed using a CHO-K1 cell line CHO-K1/hu OX40 (GenScript, #M00561) highly expressing human OX40. Briefly, the CHO-K1/hu OX40 cells were digested and resuspended in an F12K complete medium, and the cell density was adjusted to 1×10⁶ cells/mL. […] The cells were incubated at 4° C. for 1 h away from light. Thereafter, the cells in each well were rinsed twice with 100 μL of pre-cooled PBS, and centrifuged at 500 g at 4° C. for 5 min, and then the supernatant was discarded. […] The plate was incubated away from light at 4° C. for 30 min. The cells in each well were rinsed twice with 100 L of pre-cooled PBS, and centrifuged at 500 g at 4° C. for 5 min, and then the supernatant was discarded. Finally, a pre-cooled PBS was added at 200 μL/well to resuspend the cells. Fluorescence signal values were read using a BD FACS CANTOII flow cytometer or an ACEA NovoCyte flow cytometer, and the data were processed and analyzed using FlowJo v10 (FlowJo, LLC) software.

[3] = molecular target: T3, human 4-1BB (human, UniProt Q07011 24-255); experiment: flow cytometry, CHO-K1/hu 4-1BB cells
T3 construct: whole, on cells; Expressed on CHO-K1/hu 4-1BB cells (GenScript, M00538); also called CD137; TNFRSF9
Experimental: The binding ability of the binding protein to a CHO-K1 cell line CHO-K1/hu 4-1BB (GenScript, M00538) highly expressing human 4-1BB and a CHO-K1 cell line CHO-K1/cyno 4-1BB (GenScript, M00569) highly expressing cynomolgus monkey 4-1BB were determined by flow cytometry FACS. Specifically, the cells were digested and resuspended in a complete medium, and the cell density was adjusted to 2×10⁶ cells/mL. […] The cells were incubated at 4° C. for 1 h away from light. Then, the cells in each well were rinsed twice with 100 μL of pre-cooled FACS buffer (PBS buffer containing 0.5% BSA) and centrifuged at 500 g at 4° C. for 5 min, and then the supernatant was discarded. […] Then, the cells in each well were then rinsed twice with 200 μL of pre-cooled FACS buffer and centrifuged at 500 g at 4° C. for 5 min, and then the supernatant was discarded. Finally, a pre-cooled FACS buffer was added at 200 μL/well to resuspend the cells. Fluorescence signal values were read using a BD FACS CANTOII flow cytometer or an ACEA NovoCyte flow cytometer, and the data were processed and analyzed using FlowJo v10 (FlowJo, LLC) software.

[4] = molecular target: T4, human PSMA (human, UniProt Q04609 1-750); experiment: flow cytometry, LNCaP cells highly expressing human PSMA
T4 construct: whole, on cells; On LNCaP cells highly expressing human PSMA (Nanjing Cobioer, CBP60364); also called FOLH1; glutamate carboxypeptidase 2

[5] = molecular target: T5, human CLDN18.2 (human); experiment: flow cytometry, NUGC-4 cells highly expressing human CLDN18.2
T5 construct: On NUGC-4 cells highly expressing human CLDN18.2 (JCRB, JCRB0834); also called Claudin 18.2; NUGC-4 cells
Experimental: In this example, the binding ability of the binding proteins to cells highly expressing specific tumor antigens was determined by flow cytometry FACS. Briefly, a cell suspension was collected, and the cell density was adjusted to 2×10⁶ cells/mL. […] Then, binding proteins diluted in a 3-fold gradient at a total of 8 concentrations that were 2 times the final concentrations were added at 50 μL/well, and the mixture was mixed well. hIgG1 iso (CrownBio, #C0001) was used as an isotype control. The cells were incubated at 4° C. for 2 h away from light. Then, the cells in each well were then rinsed twice with 100 μL of pre-cooled PBS buffer and centrifuged at 500 g at 4° C. for 5 min, and then the supernatant was discarded. […] Then, the cells in each well were then rinsed twice with 100 μL of pre-cooled PBS buffer and centrifuged at 500 g at 4° C. for 5 min, and then the supernatant was discarded. Finally, a pre-cooled FACS buffer (PBS buffer containing 0.5% BSA) was added at 200 μL/well to resuspend the cells. Fluorescence signal values were read using an ACEA NovoCyte flow cytometer or a BD FACS CANTOII flow cytometer, and the data were processed and analyzed using FlowJo v10 (FlowJo, LLC) software.
In this example, the binding ability of the antibodies targeting CLDN18.2 to NUGC-4 cells highly expressing human CLDN18.2 (JCRB, JCRB0834) was determined.

T4 sequence (Q04609 whole entry): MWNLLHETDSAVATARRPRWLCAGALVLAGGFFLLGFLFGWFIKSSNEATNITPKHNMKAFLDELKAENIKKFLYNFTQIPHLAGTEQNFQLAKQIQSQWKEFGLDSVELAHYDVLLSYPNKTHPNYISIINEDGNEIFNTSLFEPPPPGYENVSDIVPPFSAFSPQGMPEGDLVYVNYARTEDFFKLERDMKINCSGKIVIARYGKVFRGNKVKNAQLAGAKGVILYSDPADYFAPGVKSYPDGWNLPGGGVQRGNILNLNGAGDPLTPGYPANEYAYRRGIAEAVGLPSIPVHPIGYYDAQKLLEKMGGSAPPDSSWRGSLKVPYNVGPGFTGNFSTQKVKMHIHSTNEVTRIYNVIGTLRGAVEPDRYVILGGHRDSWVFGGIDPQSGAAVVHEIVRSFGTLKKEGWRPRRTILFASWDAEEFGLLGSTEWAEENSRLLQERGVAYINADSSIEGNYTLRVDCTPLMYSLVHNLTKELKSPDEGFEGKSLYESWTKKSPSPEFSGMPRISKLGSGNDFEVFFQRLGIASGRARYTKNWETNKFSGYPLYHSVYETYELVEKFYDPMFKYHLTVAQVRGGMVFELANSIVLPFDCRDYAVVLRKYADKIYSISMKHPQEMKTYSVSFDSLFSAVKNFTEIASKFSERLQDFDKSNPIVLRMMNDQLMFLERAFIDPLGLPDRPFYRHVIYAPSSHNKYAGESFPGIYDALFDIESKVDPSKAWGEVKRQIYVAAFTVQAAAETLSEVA
T1 sequence (Q9NZQ7 19-290): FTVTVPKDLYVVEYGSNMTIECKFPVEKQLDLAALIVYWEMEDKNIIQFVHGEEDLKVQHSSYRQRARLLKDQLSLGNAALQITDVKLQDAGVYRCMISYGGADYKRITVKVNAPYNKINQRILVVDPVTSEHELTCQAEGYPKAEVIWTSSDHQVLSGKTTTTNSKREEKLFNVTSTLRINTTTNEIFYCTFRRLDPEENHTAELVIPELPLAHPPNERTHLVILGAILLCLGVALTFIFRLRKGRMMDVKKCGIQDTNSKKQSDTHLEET
T3 sequence (Q07011 24-255): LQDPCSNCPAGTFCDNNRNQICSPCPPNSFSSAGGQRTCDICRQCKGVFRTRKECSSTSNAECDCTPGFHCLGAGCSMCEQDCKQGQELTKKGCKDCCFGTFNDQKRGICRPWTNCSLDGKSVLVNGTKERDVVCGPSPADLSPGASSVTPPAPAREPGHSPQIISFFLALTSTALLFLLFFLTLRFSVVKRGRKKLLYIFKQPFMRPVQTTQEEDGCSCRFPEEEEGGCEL

Binder	binding result [2]	binding result [4]	other results
B1	binds		binding result [1]: binds
B2		binds	binding result [3]: binds
B3	binds	binds	
B4	binds		
B5			binding result [5]: binds
